# Experimental data: patent US20190032033A1
# Target: near wild type β1AR construct (β6) (UniProt P07700)
# Test: cell-based or functional assay
# Sequence of near wild type β1AR construct (β6) (P07700 33-424): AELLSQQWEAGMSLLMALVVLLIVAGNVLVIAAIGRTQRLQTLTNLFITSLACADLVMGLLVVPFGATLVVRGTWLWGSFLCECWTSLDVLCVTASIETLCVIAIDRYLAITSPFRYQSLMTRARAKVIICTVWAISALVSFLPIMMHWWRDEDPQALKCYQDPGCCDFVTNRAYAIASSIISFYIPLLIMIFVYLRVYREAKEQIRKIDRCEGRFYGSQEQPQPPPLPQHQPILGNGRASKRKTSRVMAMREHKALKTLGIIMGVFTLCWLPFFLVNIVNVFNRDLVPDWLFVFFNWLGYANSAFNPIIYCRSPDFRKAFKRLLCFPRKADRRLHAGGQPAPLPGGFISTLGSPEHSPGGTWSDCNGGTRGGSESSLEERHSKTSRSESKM
fold increase of isoprenaline affinity of the near wild-type β1AR,isoprenaline IC50 of β6 (alone […] nM),Substance
3.5 fold,51 nM,Nb80 (VHH)

# Target: wild type A2AR in HEK293 cell membranes (UniProt P29274)
# Test: cell-based or functional assay
# Sequence of wild type A2AR in HEK293 cell membranes (P29274 whole entry): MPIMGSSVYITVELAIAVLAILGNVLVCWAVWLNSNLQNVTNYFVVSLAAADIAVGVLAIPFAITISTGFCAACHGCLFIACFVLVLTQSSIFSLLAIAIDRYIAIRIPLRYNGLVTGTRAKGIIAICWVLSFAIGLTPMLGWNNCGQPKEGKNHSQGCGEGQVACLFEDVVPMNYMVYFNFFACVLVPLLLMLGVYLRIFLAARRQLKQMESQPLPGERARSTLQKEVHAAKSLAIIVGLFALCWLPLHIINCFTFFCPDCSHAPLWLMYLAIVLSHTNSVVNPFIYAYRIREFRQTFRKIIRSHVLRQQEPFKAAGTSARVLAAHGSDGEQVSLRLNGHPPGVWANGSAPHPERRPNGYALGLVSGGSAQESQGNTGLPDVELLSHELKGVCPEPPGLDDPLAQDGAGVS
row,"NECA Ki of A2AR in HEK293 membranes, 100 mM NaCl (alone 4.6 µM)",Substance
1,340 nM,Gs-Nb35 (non-lipidated heterotrimeric Gs with nanobody Nb35) (from UniProt P62873 2-340; P59768 2-71)

# Target: β1AR-84 (minimally thermostabilised turkey β1 adrenergic receptor construct) (turkey) (UniProt P07700)
# Test: cell-based or functional assay
# Sequence of β1AR-84 (minimally thermostabilised turkey β1 adrenergic receptor construct) (turkey) (P07700 other isoform, or with tags, fused parts or gaps): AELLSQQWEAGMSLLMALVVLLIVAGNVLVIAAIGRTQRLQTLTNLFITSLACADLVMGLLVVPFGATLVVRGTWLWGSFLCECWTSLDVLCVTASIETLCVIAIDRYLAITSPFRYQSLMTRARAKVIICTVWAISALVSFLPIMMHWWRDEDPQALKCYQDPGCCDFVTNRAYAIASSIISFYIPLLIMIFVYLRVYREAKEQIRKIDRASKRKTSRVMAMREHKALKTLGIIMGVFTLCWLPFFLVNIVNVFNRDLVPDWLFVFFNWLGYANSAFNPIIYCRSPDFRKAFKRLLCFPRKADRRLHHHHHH
fold shift of isoprenaline Ki of β1AR-84,isoprenaline Ki of DDM-solubilised β1AR-84 (alone […] µM),"isoprenaline Ki of β1AR-84, 20 °C (alone […] nM)","isoprenaline Ki of β1AR-84, 4 °C (alone […] nM)",isoprenaline Ki of β1AR-84 with 0.25 mM GTPγS (alone 3.0 µM),Substance
163 fold,0.023 µM,16 nM,–,–,Gs-Nb35 (non-lipidated heterotrimeric Gs with nanobody Nb35) (from UniProt P62873 2-340; P59768 2-71)
93 fold,0.083 µM,28 nM,–,–,Nb80 (VHH)
9.6 fold,–,271 nM,419 nM,2700 nM,non-lipidated heterotrimeric Gs (Gαsβ1γ2) (from UniProt P62873 2-340; P59768 2-71)

# Target: β1AR-WT (wild type-like turkey β1 adrenergic receptor construct) (turkey) (UniProt P07700)
# Test: cell-based or functional assay
# Sequence of β1AR-WT (wild type-like turkey β1 adrenergic receptor construct) (turkey) (P07700 other isoform, or with tags, fused parts or gaps limits assumed): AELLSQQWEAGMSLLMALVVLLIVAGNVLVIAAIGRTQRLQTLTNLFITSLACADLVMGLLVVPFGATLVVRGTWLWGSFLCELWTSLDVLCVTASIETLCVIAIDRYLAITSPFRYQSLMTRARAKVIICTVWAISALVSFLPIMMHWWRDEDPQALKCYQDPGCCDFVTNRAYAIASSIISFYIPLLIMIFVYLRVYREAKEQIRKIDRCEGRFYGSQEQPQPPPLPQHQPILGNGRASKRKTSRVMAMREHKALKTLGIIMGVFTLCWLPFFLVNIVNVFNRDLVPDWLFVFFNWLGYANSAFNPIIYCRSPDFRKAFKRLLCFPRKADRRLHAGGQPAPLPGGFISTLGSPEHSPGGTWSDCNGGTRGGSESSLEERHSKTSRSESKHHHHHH
apparent Tm of β1AR-WT complex in DDM (receptor alone 25.9 °C),apparent Tm of β1AR-WT complex in decylmaltoside (receptor alone 20.4 °C),fold shift of isoprenaline Ki of β1AR-WT,isoprenaline Ki of membrane-embedded β1AR-WT (alone 40 nM),norepinephrine Ki of β1AR-WT (alone 158 nM),Substance,apparent Tm of β1AR-WT complex in nonylglucoside (uncoupled receptor did not survive),apparent Tm of β1AR-WT complex in octylglucoside (uncoupled receptor did not survive)
35.8 °C,31.1 °C,5.9 fold,6.8 nM,0.36 nM,Gs-Nb35 (non-lipidated heterotrimeric Gs with nanobody Nb35) (from UniProt P62873 2-340; P59768 2-71),19 °C,13.6 °C
32 °C,28.6 °C,6.9 fold,5.8 nM,0.7 nM,Nb80 (VHH),16.7 °C,14.3 °C
–,–,2.4 fold,17 nM,–,non-lipidated heterotrimeric Gs (Gαsβ1γ2) (from UniProt P62873 2-340; P59768 2-71),–,–

# Target: β84 (minimally thermostabilised β1AR construct of Example 2) (UniProt P07700)
# Test: cell-based or functional assay
"isoprenaline IC50 of β84, 20 °C (alone […] µM)",isoprenaline IC50 of β84 (alone […] µM),"isoprenaline IC50 of β84, 4 °C","isoprenaline IC50 of β84, 20 °C","isoprenaline IC50 of β84, 4 °C (alone […] µM)",Substance
0.206 µM,–,–,–,–,GTPase domain with βγ-dimer and Nb35 (from UniProt P62873 2-340; P59768 2-71)
–,0.068 µM,–,–,–,Gs-Nb35 (non-lipidated heterotrimeric Gs with nanobody Nb35) (from UniProt P62873 2-340; P59768 2-71)
–,–,185 nM,1800 nM,–,Gαs GTPase domain A48D (from UniProt P63092 45-394)
–,–,15 nM,53 nM,–,Gαs GTPase domain A249D (from UniProt P63092 45-394)
–,–,104 nM,582 nM,–,Gαs GTPase domain A249E (from UniProt P63092 45-394)
–,–,146 nM,1600 nM,–,Gαs GTPase domain A249S (from UniProt P63092 45-394)
–,–,93 nM,1900 nM,–,Gαs GTPase domain C237E (from UniProt P63092 45-394)
–,–,510 nM,4400 nM,–,Gαs GTPase domain D240G (from UniProt P63092 45-394)
–,–,2400 nM,–,–,Gαs GTPase domain D295N (from UniProt P63092 45-394)
–,–,55 nM,1100 nM,–,Gαs GTPase domain E50N (from UniProt P63092 45-394)
–,–,250 nM,1300 nM,–,Gαs GTPase domain F208N (from UniProt P63092 45-394)
–,–,37 nM,428 nM,–,Gαs GTPase domain G49D (from UniProt P63092 45-394)
–,–,44 nM,364 nM,–,Gαs GTPase domain G49D/E50N (from UniProt P63092 45-394)
–,–,127 nM,1200 nM,–,Gαs GTPase domain G226A (from UniProt P63092 45-394)
–,–,58 nM,589 nM,–,Gαs GTPase domain H41I (from UniProt P63092 45-394)
–,–,285 nM,3900 nM,–,Gαs GTPase domain H41L (from UniProt P63092 45-394)
–,–,307 nM,1800 nM,–,Gαs GTPase domain H41M (from UniProt P63092 45-394)
–,–,77 nM,737 nM,–,Gαs GTPase domain H41V (from UniProt P63092 45-394)
–,–,4300 nM,–,–,Gαs GTPase domain L270N/I348N (from UniProt P63092 45-394)
–,–,10 nM,464 nM,–,Gαs GTPase domain L272D (from UniProt P63092 45-394)
–,–,42 nM,110 nM,–,Gαs GTPase domain L272E (from UniProt P63092 45-394)
–,–,102 nM,2000 nM,–,Gαs GTPase domain N279D/Q235K (from UniProt P63092 45-394)
–,–,1200 nM,2800 nM,–,Gαs GTPase domain N279E/I235K (from UniProt P63092 45-394)
–,–,109 nM,1800 nM,–,Gαs GTPase domain R199D (from UniProt P63092 45-394)

"isoprenaline IC50 of β84, 20 °C (alone […] µM)",isoprenaline IC50 of β84 (alone […] µM),"isoprenaline IC50 of β84, 4 °C","isoprenaline IC50 of β84, 20 °C","isoprenaline IC50 of β84, 4 °C (alone […] µM)",Substance
–,–,108 nM,1900 nM,–,Gαs GTPase domain R199K (from UniProt P63092 45-394)
–,–,46 nM,2200 nM,–,Gαs GTPase domain R201A (from UniProt P63092 45-394)
–,–,161 nM,3300 nM,–,Gαs GTPase domain R356D (from UniProt P63092 45-394)
–,–,229 nM,2800 nM,–,Gαs GTPase domain R356S (from UniProt P63092 45-394)
–,–,462 nM,–,–,Gαs GTPase domain S54N (from UniProt P63092 45-394)
–,–,21 nM,142 nM,–,Gαs GTPase domain S252D (from UniProt P63092 45-394)
–,–,57 nM,575 nM,–,Gαs GTPase domain S252E (from UniProt P63092 45-394)
–,–,136 nM,2000 nM,–,Gαs GTPase domain S275D (from UniProt P63092 45-394)
–,–,4200 nM,7000 nM,–,Gαs GTPase domain S286C/I382C (from UniProt P63092 45-394)
–,–,115 nM,–,–,Gαs GTPase domain V36D/N218K (from UniProt P63092 45-394)
–,–,551 nM,2400 nM,–,Gαs GTPase domain V36D/N218K/T40A (from UniProt P63092 45-394)
–,–,427 nM,3200 nM,–,Gαs GTPase domain V36D/N218K/T40D (from UniProt P63092 45-394)
–,–,584 nM,4000 nM,–,Gαs GTPase domain W234A/F238A (from UniProt P63092 45-394)
–,–,81 nM,2000 nM,–,Gαs GTPase domain Y37D (from UniProt P63092 45-394)
–,–,2300 nM,–,–,Gαs GTPase domain Y37R/R42D (from UniProt P63092 45-394)
–,–,136 nM,–,–,Gαs GTPase domain parental construct (Example 2) (from UniProt P63092 45-394)
–,–,34 nM,799 nM,–,Gαs GTPase domain Δ227-230/GG linker
–,–,31 nM,30 nM,–,Gαs GTPase domain Δ254-263
–,–,23 nM,142 nM,–,Gαs GTPase domain Δ254-263/Y253P
–,–,1300 nM,–,–,Gαs GTPase domain Δ255-262/G linker
–,0.016 µM,–,–,–,Nb80 (VHH)
3.4 µM,–,–,–,0.253 µM,"isolated GTPase domain of Gαs (Example 2, FIG. 14)"
–,1.4 µM,–,–,–,non-lipidated heterotrimeric Gs (Gαsβ1γ2) (from UniProt P62873 2-340; P59768 2-71)
